± gives the standard deviation of the averaged measurements.

This data set deals with ATP. Put plainly: switch fluorescence ratio, 500 uM ATP over buffer (Cy3 cluster intensity, sum of 5 cycles each) (fold (ratio)); higher = stronger signal-on switching upon ATP binding; sequences stand for … in TCGTCGGCAGCGTCAGATGTGTATAAGAGACAGTTTTTTTTTTTTTTTTTTTTTTTTT…TC. As to conditions: aptamer strand: ATP DNA aptamer (quencher-CACCTGGGGGAGTATTGCGGAGGAAGG + anchor), 100 nM annealed; ATP concentration: 500 uM. In outline: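 Exposure to 500 uM ATP lasted 15 min at 22 °C before imaging, and a selection-buffer image was taken beforehand, for Cy3-labelled switching-strand clusters on a modified Illumina MiSeq flow-cell annealed to 100 nM quencher-labelled ATP aptamer. Five buffer/ATP cycles were run with NaOH stripping and re-annealing between them. The fluorescence ratio per cluster is summed target-cycle over summed buffer-cycle Cy3 intensity, averaged per switch-domain sequence. Clusters outside 100-1000 RFU were excluded.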
With GATTCTGGTT, the switch fluorescence ratio was 0.94 ± 0.029.
Then TTAAGCCTGG, with 0.962 ± 0.022; and GGCGGAAGAA, with 1.07 ± 0.013.
Then AGGAAACTTA, with 0.988 ± 0.0076; and GCTGTGGCGT, with 1.02 ± 0.04; and ATTTTTAACT, with 0.99578 ± 0.00077.
Then TTCGGGAGAA, with 1.01 ± 0.052; and AACTGGCAAT, with 1.5 ± 0.072; and ACCAGGGACG, with 1.02 ± 0.073.
Regarding GGGAGAGACT, the switch fluorescence ratio amounted to 1.03 ± 0.014.
Take ATAGGTGCGG: the switch fluorescence ratio turned out to be 0.985 ± 0.021.
With ACTTTGAATC, the switch fluorescence ratio amounted to 0.998 ± 0.053.
Then GGATAATGAG, with 0.961 ± 0.028; and ATGGCTTGGA, with 0.996 ± 0.029; and AGATGCAGCT, with 0.976 ± 0.033.
Regarding CTATGTCAAC, the switch fluorescence ratio turned out to be 1.06 ± 0.023.
Then GTCTGTTATT, with 1.01 ± 0.035; and AGGGTTGGAC, with 0.9774 ± 0.0057.
With GGAGACTTTA, the switch fluorescence ratio is 1.006 ± 0.0056.
Regarding CAGTGGGTTT, the switch fluorescence ratio came to 0.97 ± 0.032.
Consider GCTGAGGGGG, for which the switch fluorescence ratio was found to be 0.991 ± 0.041.
Then TGTATTGGTT, with 0.99 ± 0.034; and CAGTTTGGGG, with 0.982 ± 0.019; and AACGGGATGG, with 1.02 ± 0.036.
Then AGTTTGTTGG, with 0.989 ± 0.035; and AGGGAAAGGT, with 1.06 ± 0.05.
In the case of CATAGCGTTA, the switch fluorescence ratio came to 1.03 ± 0.011.
Then GAGTGGGGGG, with 0.976 ± 0.043; and CGTGTTTTCT, with 0.99 ± 0.031.
Then GGGACAAGAT, with 0.999 ± 0.026.
Then TTCGCAACGG, with 1.22 ± 0.34.
Take GTACTCGGGG: the switch fluorescence ratio amounted to 0.9991 ± 0.0074.
Then ACTACATATG, with 1.03 ± 0.016; and CATGTAGAGG, with 0.976 ± 0.033; and AACCATGGGT, with 1.01 ± 0.03.
With GGTTACACTG, the switch fluorescence ratio is 1.03 ± 0.025.
For the sequence ATCTATATAG, the switch fluorescence ratio was determined as 0.9945 ± 0.0068.
Consider ATAATCAAGG, for which the switch fluorescence ratio came out at 1.01 ± 0.032.
Then CTTAGATCTG, with 1 ± 0.027; and AGGGAAAGCG, with 0.996 ± 0.044.
As for CGAGCTCCAT, the switch fluorescence ratio was 1.015 ± 0.0054.
Take TCCCCGCGCT: the switch fluorescence ratio amounted to 1.25 ± 0.37.
Then GTTTGCCTGT, with 0.9845 ± 0.0094; and GGGGGGAGGA, with 1.01 ± 0.056; and CGGGTGCGTG, with 0.981 ± 0.017.
Then CGTATGACTA, with 0.984 ± 0.05; and GCATCAGGAG, with 1.05 ± 0.021; and TTCTATCGTT, with 1.01 ± 0.031.
Then GGAGGGGCAA, with 1.24 ± 0.032; and ATGGATTGGT, with 0.984 ± 0.012; and TTTAGGAGGA, with 0.997 ± 0.025.
On to TTTGGAGGGA, for which the switch fluorescence ratio stood at 1.48 ± 0.8.
Take GTTATGCTCT: the switch fluorescence ratio came to 1.01 ± 0.014.
For the sequence GAGTTATGGT, the switch fluorescence ratio worked out at 1.02 ± 0.044.
For ATCTTATTTG, the switch fluorescence ratio was determined as 1.01 ± 0.033.
Consider CGAATTGATA, for which the switch fluorescence ratio was determined as 1.01 ± 0.013.
Take GGGCGGTCGG: the switch fluorescence ratio was 1 ± 0.03.
Then TTTTTAGGTA, with 0.992 ± 0.017.
Then TTGGGCATCA, with 1 ± 0.065; and TTTTCAAATC, with 1.016 ± 0.0075.
In the case of GAAGTTTGAT, the switch fluorescence ratio came to 0.9867 ± 0.0011.
For TGAGTATGGG, the switch fluorescence ratio amounted to 0.973 ± 0.019.
Regarding TGGTATCGGC, the switch fluorescence ratio was 0.992 ± 0.01.
Consider GACTAACTAC, for which the switch fluorescence ratio was found to be 1.251 ± 0.0087.
Consider CATTAGAATC, for which the switch fluorescence ratio turned out to be 0.997 ± 0.028.
Then CAAGTGCTTA, with 0.9578 ± 0.0081.

The values are drawn from the supplement of paper PMC10126150.
